Reference: paper PMC6698744
Read-outs that look alike come from different tables or passages of the source.

Experiments:
A3Gctd-2K3A-E259A [1] = biological target: T1, A3Gctd-2K3A-E259A (UniProt Q9HC16 191-384, L234K;C243A;E259A;F310K;C321A;C356A); assay: MST
A3Gctd-2K3A-E259A [2] = biological target: T1, A3Gctd-2K3A-E259A; assay: MST; remark: listed apart in the source

T1 sequence (Q9HC16 191-384 L234K/C243A/E259A/F310K/C321A/C356A): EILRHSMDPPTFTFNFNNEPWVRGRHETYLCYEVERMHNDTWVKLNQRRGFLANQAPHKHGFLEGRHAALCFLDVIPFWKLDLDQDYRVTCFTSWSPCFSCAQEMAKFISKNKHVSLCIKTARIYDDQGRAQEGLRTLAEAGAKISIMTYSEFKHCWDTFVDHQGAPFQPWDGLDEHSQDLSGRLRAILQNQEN

Binder	Kd (A3Gctd-2K3A-E259A [1]) [µM]	Kd (A3Gctd-2K3A-E259A [2]) [µM]
AATCCUAAA (ssDNA, deoxyuridine at position 6) [5'-AATCCdUAAA (intermediate product)]	2170 ± 250	–
ATTCCCAATT (XNA, 2'-deoxy-2'-fluororibocytidine at position 6, rest DNA) [5'-ATTCC(2'-F-RNA)CAATT]	3760 ± 300	–
ATTCCCAATT (XNA, 2'-deoxy-2'-fluoroarabinocytidine at position 6, rest DNA) [5'-ATTCC(2'-F-ANA)CAATT]	–	1740 ± 490
AATCCCAAA (ssDNA, ribocytidine at position 6, rest DNA) [5'-AATCCrCAAA]	6650 ± 860	–
AATCCCAAA (ssDNA) [5'-AATCCCAAA (substrate)]	1570 ± 160	–
